Converted amounts (≈) assume the structure as drawn. Square brackets hold non-standard residues; d marks the D form. Ends that are not written are not given here.
Tests used:
[1] = test system: Pseudomonas aeruginosa strains
Procedure: Pseudomonas aeruginosa strains used in this study are a diverse group of clinical isolates from different places in the world. […] The geometric mean MIC values from six Pseudomonas aeruginosa strains were calculated to provide an overall evaluation of antimicrobial activity of these peptides against Pseudomonas aeruginosa. Fold improvement was calculated by comparing the geometric mean MIC value of each peptide to that of the parent peptide V681.
Measurement of Antimicrobial Activity—Minimal inhibitory concentrations (MICs) were determined using a standard microtiter dilution method in LB (Luria-Bertani) no-salt medium (10 g of tryptone and 5 g of yeast extract per liter). Briefly, cells were grown overnight at 37° C. in LB and diluted in the same medium. […] Plates were incubated at 37° C. for 24 hours and MICs determined as the lowest peptide concentration that inhibited growth. Alternatively, minimal inhibitory concentrations were determined using a standard microtiter dilution method in a Mueller-Hinton (MH) medium. Briefly, cells were grown overnight at 37° C. in MH broth and diluted in the same medium. […] Plates were incubated at 37° C. for 24 hours and MICs determined as the lowest peptide concentration that inhibited growth. However, for MIC determination of Pseudomonas aeruginosa clinical isolates, brain heart infusion (BH1) medium was used instead of MH broth. In addition, the bacteria were diluted to a final inoculum of 1×10^6 colony-forming units/ml.
For the Leu-substituted peptides, the hemolytic activity against human erythrocytes was determined as the maximal peptide concentration that produces no hemolysis after 18 hours of incubation at 37° C. Antimicrobial activity of the peptides was determined on a diverse group of Pseudomonas aeruginosa clinical isolates. […] The geometric mean MIC values from six Pseudomonas strains in Table 14 were calculated to provide an overall evaluation of antimicrobial activity of the peptides with different hydrophobicities.

human erythrocytes = experiment: Hemolytic activity (MHC), Protocol B, 18 hours; details: maximal peptide concentration showing no hemolysis after 18 hours, hRBC, Table 14
Procedure: In order to evaluate the biological activities of the D-enantiomeric peptides, namely D-NAL and D-NKD, the hemolytic activity of the peptides against human erythrocytes was determined as the maximal peptide concentration that produces no hemolysis after 18 hours of incubation at 37° C.
Measurement of Hemolytic Activity—Protocol A: Peptide samples were added to 1% human erythrocytes in phosphate buffered saline (0.08M NaCl; 0.043M Na2PO4; 0.011M KH2PO4) and reactions were incubated at 37° C. for 12 hours in microtiter plates. Peptide samples were diluted 2 fold in order to determine the concentration that produced no hemolysis. […] Hemoglobin release was determined spectrophotometrically at 562 nm. The hemolytic titer was the highest 2-fold dilution of the peptide that still caused release of hemoglobin from erythrocytes. The control for no release of hemoglobin was a sample of 1% erythrocytes without any peptide added. […] Peptide samples were diluted 2 fold in order to determine the concentration that produced no hemolysis. […] Hemoglobin release was determined spectrophotometrically at 570 nm. The hemolytic titer was the highest 2-fold dilution of the peptide that still caused release of hemoglobin from erythrocytes. The control for no release of hemoglobin was a sample of 1% erythrocytes without any peptide added.

[2] = RP-HPLC temperature profiling (hydrophobicity and self-association/dimerization parameter PA); type: physicochemical; details: for tR (min) 5° C.: RP-HPLC retention time at 5° C. during temperature profiling (measure of hydrophobicity); for tR (min) 80° C.: RP-HPLC retention time at 80° C. during temperature profiling; for tR (min) Max: maximal RP-HPLC retention time during temperature profiling 5-80° C.; for PA (min) association parameter: maximal retention time difference relative to control peptide C within 5-80° C.; for overall hydrophobicity change relative to PVL: RP-HPLC retention time difference at 80° C.; for overall hydrophobicity change relative to PVL / ΔtR (X-PSL) (min) 5° C. / ΔtR (X-PSL) (min) 80° C.: polar face substitutions; for ΔtR (X-PSL) (min) 5° C.: retention time difference relative to native peptide V681 (PSL) at 5° C.; for ΔtR (X-PSL) (min) 80° C.: retention time difference relative to native peptide V681 (PSL) at 80° C.
Procedure: The retention time data for the peptides is shown in Table 5 which records retention times at 5° C., the maximal retention times and retention times at 80° C. during the temperature profiling. Temperatures of 5° C. and 80° C. were the lower and upper temperature limits of temperature profiling in RP-HPLC, representing dimerization of the peptides at 5° C. and the monomerization of peptides at 80° C. due to dissociation of the dimers. The maximal retention times represent the threshold points at which peptides transform from dimeric to monomeric form. Among the non-polar face substituted peptides, peptides with more hydrophobic substitutions (whether L- or D-amino acid substitutions) were more retained during RP-HPLC, i.e., peptides were eluted in the order of Lys, Gly, Ser, Ala, Val and Leu (Table 5). In addition, on the non-polar face, the L-analogs were always more retained than the D-diastereomers (Table 5, FIG. 5). […] In contrast, on the polar face, the elution order of peptides was not correlated with the order of amino acid side-chain hydrophobicity, e.g., PAL and PSL were more retained than PVL (Table 5); PSD was the most retained peptide among the D-amino acid substituted analogs on the polar face (Table 5).
The ability of the D-peptides to self-associate was determined by RP-HPLC temperature profiling. […] As expected, L- and D-peptide enantiomers were totally inseparable over this temperature range, since each pair of peptides is identical in sequence and must adopt identical conformations on interacting with the reversed-phase matrix, whether in an all-L- or all-D-conformation. RP-HPLC retention behavior has been frequently utilized to represent overall peptide hydrophobicity (53, 26). In the present study, the hydrophobicity of the three peptide pairs is in the order V681/D-V681>[…]>NKL/D-NKD (Table 4), which agrees with the change in hydrophobicity of the substitutions at position 13 in order of the most hydrophobic to the least hydrophobic amino acid residue (Val in V681>Ala in NA>Lys in NK) (54). […] For example, the retention times of peptides V681/D-V681 increase with increasing temperature (up to ˜30° C.) followed by a retention time decrease with a further temperature increase. […] Since peptide C is a monomeric random coil peptide in both aqueous and hydrophobic media, its retention behavior over the temperature range 5° C. to 80° C. represents only general temperature effects on peptide retention behavior, i.e., a linear decrease in peptide retention time with increasing temperature due to greater solute diffusivity and enhanced mass transfer between the stationary and mobile phases at higher temperatures (55). Thus, after normalization to the retention times of peptide C, the retention behavior of the peptides represents only peptide self-association ability. Note that the higher the PA value, the greater the self-association ability. […] From Table 4, it is also clear that the peptide retention times at 80° C. are dramatically lower than those at 5° C.
Elution times during RP-HPLC have frequently been utilized as a measure of relative hydrophobicity of peptide analogs (26, 31). In the current study, peptide analogs differed only by a single amino acid substitution on either the non-polar face or the polar face of V681; thus, the retention time data in Table 5 can be considered to reflect the hydrophobicity difference between peptide analogs. In order to more easily visualize the variation in hydrophobicity of the peptide analogs, the retention time data in Table 5 were normalized relative to that of the native peptide V681 at 5° C. and 80° C., respectively. Hydrophobicity relative to the native peptide V681 indicates an increase or decrease of the apparent peptide hydrophobicity with the different amino acid substitutions on the polar or non-polar face. […]

[3] = Circular dichroism spectroscopy of helical structure (benign buffer and 50% TFE); type: physicochemical; details: 25° C.; for % helix 50% TFE / % helix Benign: relative to NAL in 50% TFE; for [θ]222 Benign: benign buffer (100 mM KCl, 50 mM PO4 pH 7.0); for [θ]222 50% TFE: benign buffer diluted 1:1 (v/v) with TFE; for % helix Benign: benign buffer
Procedure: To determine the secondary structure of peptides in different environments, circular dichroism (CD) spectra of the peptide analogs were measured under physiologically related pH and ionic strength (100 mM KCl, 50 mM aq. PO4, pH 7 referred to as benign conditions) and also in 50% TFE to mimic the hydrophobic environment of the membrane. […] On the non-polar face, the native L-Val residue was critical in maintaining α-helical structure. […] Even the substitution with L-Ala, which is known to have the highest α-helical propensity of all 20 amino acids (34), could not stabilize the α-helical structure. […] It is noteworthy that, on the non-polar face, the magnitude of the helical content of L-peptides in benign buffer was related to the hydrophobicity of the substituting amino acids, i.e., NLL>NVL>NAL>NSL, NKL, again showing the importance of hydrophobicity on the non-polar face in maintaining the α-helical structure. […] However, whether L- or D-substitutions were made on the non-polar face, high helical structure could be induced by the hydrophobic environment of 50% TFE, a mimic of the membrane's hydrophobicity and α-helix inducing ability (Table 3).
To determine the secondary structure of the D-enantiomeric peptides in different environments, CD spectra of the peptide analogs were measured under benign conditions (100 mM KCl, 50 mM KH2PO4/K2HPO4, pH 7.4, referred to as KP buffer) and also in 50% trifluoroethanol (TFE) to mimic the hydrophobic environment of the membrane. […] However, in the presence of 50% TFE, all three L-peptides were fully folded α-helical structures with similar ellipticities and helicity (Table 4).
Characterization of Helical Structure—The mean residue molar ellipticities of peptides were determined by circular dichroism (CD) spectroscopy, using a Jasco J-720 spectropolarimeter (Jasco, Easton, Md.), at 25° C. under benign conditions (50 mM KH2PO4/K2HPO4/100 mM KCl, pH 7), as well as in the presence of an α-helix inducing solvent, 2,2,2-trifluoroethanol (TFE) (50 mM KH2PO4/K2HPO4/100 mM KCl, pH 7 buffer/50% TFE). A 10-fold dilution of a ˜500 μM stock solution of the peptide analogs was loaded into a 0.02 cm fused silica cell and its ellipticity scanned from 190 to 250 nm. The values of molar ellipticities of the peptide analogs at a wavelength of 222 nm were used to estimate the relative α-helicity of the peptides.

Row | Compound | tR (min) 5° C. [2] | tR (min) 80° C. [2] | tR (min) Max [2] | PA (min) association parameter [2] | % helix 50% TFE [3] | [θ]222 Benign [3] | [θ]222 50% TFE [3] | % helix Benign [3] | overall hydrophobicity change relative to PVL [2] | ΔtR (X-PSL) (min) 5° C. ([2]; relative hydrophobicity) | ΔtR (X-PSL) (min) 80° C. ([2]; relative hydrophobicity) | further results
1 | CC[C@H](C)[C@H](NC(=O)[C@H](CC(C)C)NC(=O)[C@H](CCCCN)NC(=O)[C@H](CC(C)C)NC(=O)[C@H](C)NC(=O)[C@@H](NC(=O)[C@H](Cc1c[nH]cn1)NC(=O)[C@H](CC(C)C)NC(=O)[C@@H](NC(=O)[C@@H](NC(=O)[C@H](CCCCN)NC(=O)[C@H](CCCCN)NC(=O)[C@H](CC(C)C)NC(=O)[C@H](CO)NC(=O)[C@H](CCCCN)NC(=O)[C@H](Cc1ccccc1)NC(=O)[C@@H](NC(=O)[C@H](CCCCN)NC(=O)[C@H](CC(C)C)NC(=O)[C@H](Cc1ccccc1)NC(=O)[C@H](CO)NC(=O)[C@H](CCCCN)NC(=O)[C@H](Cc1c[nH]c2ccccc12)NC(=O)[C@H](CCCCN)NC(C)=O)[C@@H](C)O)[C@@H](C)O)C(C)C)[C@@H](C)O)C(=O)N[C@@H](CO)C(=O)N[C@@H](CO)C(N)=O [A12L/A23L] | – | – | – | – | – | – | – | – | – | – | – | MIC (μg/ml) CP 204 ([1]; Pseudomonas aeruginosa clinical isolate CP 204): 7.8 µg/mL (≈ 2.54 µM); MIC (μg/ml) M 2 ([1]; Pseudomonas aeruginosa clinical isolate M 2): 31.3 µg/mL (≈ 10.2 µM); MIC (μg/ml) PA 14 ([1]; Pseudomonas aeruginosa clinical isolate PA 14): 62.5 µg/mL (≈ 20.3 µM); MIC (μg/ml) PAK ([1]; Pseudomonas aeruginosa clinical isolate PAK): 15.6 µg/mL (≈ 5.07 µM); MIC (μg/ml) PAO 1 ([1]; Pseudomonas aeruginosa clinical isolate PAO 1): 15.6 µg/mL (≈ 5.07 µM); MIC (μg/ml) WR 5 ([1]; Pseudomonas aeruginosa clinical isolate WR 5): 250.0 µg/mL (≈ 81.3 µM); MIC (μg/ml) GM ([1]; geometric mean of the MIC values for the 6 Pseudomonas aeruginosa clinical isolates): 31.2 µg/mL (≈ 10.1 µM); Hemolytic activity MHC (human erythrocytes): 15.6 µg/mL
2 | NLD: V681 analog with D-Leu at position 13 (non-polar face) (KWKSFLKTFKSA[dL]KTVLHTALKAISS-NH2; not fully specified) | 45.10 min | 43.03 min | 46.37 min | 3.02 min | 89% | −7,350 deg · cm^2 · dmol^−1 | −25,750 deg · cm^2 · dmol^−1 | 25% | – | – | – | ΔtR (X-NVL) (min) 5° C. ([2]; non-polar face substitutions, retention time difference relative to native peptide V681 (NVL) at 5° C., relative hydrophobicity): -3.00 min; ΔtR (X-NVL) (min) 80° C. ([2]; non-polar face substitutions, retention time difference relative to native peptide V681 (NVL) at 80° C., relative hydrophobicity): -2.80 min
3 | PAL: V681 analog with L-Ala at position 11 (polar face) (KWKSFLKTFKAAVKTVLHTALKAISS) | 48.25 min | 46.63 min | 50.57 min | 4.15 min | 95% | −13,600 deg · cm^2 · dmol^−1 | −27,600 deg · cm^2 · dmol^−1 | 47% | +0.45 min | 0.15 min | 0.80 min | –
4 | PKL: V681 analog with L-Lys at position 11 (polar face) (KWKSFLKTFKKAVKTVLHTALKAISS) | 46.38 min | 43.89 min | 47.90 min | 3.17 min | 94% | −5,950 deg · cm^2 · dmol^−1 | −27,350 deg · cm^2 · dmol^−1 | 21% | -2.29 min | -1.72 min | -1.94 min | –
5 | PLL: V681 analog with L-Leu at position 11 (polar face) (KWKSFLKTFKLAVKTVLHTALKAISS) | 48.78 min | 47.51 min | 51.23 min | 4.33 min | 99% | −10,850 deg · cm^2 · dmol^−1 | −28,550 deg · cm^2 · dmol^−1 | 37% | – | 0.68 min | 1.68 min | –
